{"source": "patent US12304944", "key": {"[1]": {"system": "hFIX R338L (codon-optimized human factor IX carrying the R338L mutation)", "sequence (chain, as listed by the source R338L R338L)": "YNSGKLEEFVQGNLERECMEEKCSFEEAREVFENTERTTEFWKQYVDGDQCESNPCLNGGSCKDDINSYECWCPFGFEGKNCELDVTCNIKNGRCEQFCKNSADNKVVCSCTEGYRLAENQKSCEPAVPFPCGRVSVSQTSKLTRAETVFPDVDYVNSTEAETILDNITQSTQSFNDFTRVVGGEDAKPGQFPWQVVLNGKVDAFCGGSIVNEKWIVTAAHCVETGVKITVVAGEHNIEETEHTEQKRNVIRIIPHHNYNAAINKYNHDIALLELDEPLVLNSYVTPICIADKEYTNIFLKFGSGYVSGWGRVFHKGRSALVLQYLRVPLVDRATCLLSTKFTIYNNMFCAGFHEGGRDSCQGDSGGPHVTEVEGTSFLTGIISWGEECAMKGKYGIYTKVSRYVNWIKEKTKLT"}, "[2]": {"system": "hFIX R338L-2Fc (codon-optimized human factor IX R338L, XIa-cleavable linker, IgG1 Fc, 3xGGGS linker, IgG1 Fc)", "sequence (chain, as listed by the source R338L R338L)": "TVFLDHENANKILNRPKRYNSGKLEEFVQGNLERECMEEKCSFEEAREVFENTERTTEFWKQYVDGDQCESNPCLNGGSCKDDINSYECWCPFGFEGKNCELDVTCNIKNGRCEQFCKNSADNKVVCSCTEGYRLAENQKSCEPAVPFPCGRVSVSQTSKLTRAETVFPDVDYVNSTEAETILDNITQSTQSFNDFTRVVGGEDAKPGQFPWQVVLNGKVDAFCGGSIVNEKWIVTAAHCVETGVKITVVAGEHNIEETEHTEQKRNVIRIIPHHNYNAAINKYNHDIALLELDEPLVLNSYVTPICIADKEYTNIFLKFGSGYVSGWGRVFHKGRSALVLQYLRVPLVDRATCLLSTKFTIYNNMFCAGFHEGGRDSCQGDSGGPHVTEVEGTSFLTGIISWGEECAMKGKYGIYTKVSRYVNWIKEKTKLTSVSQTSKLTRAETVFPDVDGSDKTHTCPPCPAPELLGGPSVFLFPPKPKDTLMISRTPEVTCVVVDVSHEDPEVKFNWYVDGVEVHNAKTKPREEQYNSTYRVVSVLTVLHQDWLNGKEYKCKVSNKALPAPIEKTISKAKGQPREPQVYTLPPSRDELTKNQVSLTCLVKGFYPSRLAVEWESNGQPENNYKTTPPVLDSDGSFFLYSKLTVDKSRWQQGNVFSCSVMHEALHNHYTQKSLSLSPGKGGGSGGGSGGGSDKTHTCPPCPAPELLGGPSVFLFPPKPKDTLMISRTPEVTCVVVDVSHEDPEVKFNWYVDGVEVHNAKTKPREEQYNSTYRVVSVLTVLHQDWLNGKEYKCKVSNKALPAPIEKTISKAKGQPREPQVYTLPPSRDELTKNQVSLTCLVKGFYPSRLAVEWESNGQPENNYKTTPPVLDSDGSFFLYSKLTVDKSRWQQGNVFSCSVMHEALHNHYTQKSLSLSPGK"}}}
{"substance": "activated factor XI (XIa)", "values": [{"measurement": "cleavage by XIa, western blot of conditioned media treated or not with XIa", "setting": "[1]", "value": "Only low levels of partial XIa cleavage of media derived unpurified hFIX could be observed"}, {"measurement": "cleavage by XIa, western blot of conditioned media treated or not with XIa", "setting": "[2]", "value": "Only low levels of partial XIa cleavage of media derived unpurified hFIX could be observed"}, {"measurement": "processing by XIa in vitro", "setting": "[2]", "value": "its translated protein was efficiently processed by XIa"}]}
